Reference: article doi:10.1101/2022.08.09.502851, “Dystroglycan N-terminal domain enables LARGE1 to extend matriglycan on α-dystroglycan and prevents muscular dystrophy” (bioRxiv, 2022)
Substitutions are numbered along the chain they refer to. Names and notes keep the numbering of the source.

B1: α-dystroglycan (α-DG), wild type, with full-length matriglycan, from control (WT littermate or C57BL/6J) mouse skeletal muscle (receptor, mouse (endogenous in skeletal muscle), UniProt Q62165 28-651, looked up)
chain: HWPSEPSEAVRDWKNQLEASMHSVLSDFQEAVPTVVGIPDGTAVVGRSFRVSIPTDLIASSGEIIKVSAAGKEALPSWLHWDPHSHILEGLPLDTDKGVHYISVSAARLGANGSHVPQTSSVFSIEVYPEDHNEPQSVRAASSDPGEVVPSACAADEPVTVLTVILDADLTKMTPKQRIDLLNRMQSFSEVELHNMKLVPVVNNRLFDMSAFMAGPGNAKKVVENGALLSWKLGCSLNQNSVPDIRGVETPAREGAMSAQLGYPVVGWHIANKKPTLPKRLRRQIHATPTPVTAIGPPTTAIQEPPSRIVPTPTSPAIAPPTETMAPPVRDPVPGKPTVTIRTRGAIIQTPTLGPIQPTRVSEAGTTVPGQIRPTLTIPGYVEPTAVITPPTTTTKKPRVSTPKPATPSTDSSTTTTRRPTKKPRTPRPVPRVTTKAPITRLETASPPTRIRTTTSGVPRGGEPNQRPELKNHIDRVDAWVGTYFEVKIPSDTFYDNEDTTTDKLKLTLKLREQQLVGEKSWVQFNSNSQLMYGLPDSSHVGKHEYFMHATDKGGLSAVDAFEIHVHKRPQGDKAPARFKARLAGDPAPVVNDIHKKIALVKKLAFAFGDRNCSSITLQNITRG
modifications: matriglycan [-GlcA-β1,3-Xyl-α1,3-]n, full length (α-DG of ~150-250 kDa); extensive O-glycosylation
notes: α-dystroglycan, the α-subunit cut from the DG pre-proprotein (Dag1), mouse; also called α-DG (WT)
B2: α-dystroglycan with the knock-in mutation T190M, from Dag1 T190M mouse skeletal muscle (receptor, UniProt Q62165 28-651, looked up)
chain: B1 chain with T163M
modifications: matriglycan shorter than wild type (α-DG laminin-binding band at ~100-150 kDa)
notes: α-dystroglycan, the α-subunit cut from the DG pre-proprotein (Dag1), mouse, knock-in T190M (Hara et al., 2011); also called α-DGN mutant (T190M)

Molecular target: T1, laminin-111 (mouse Engelbreth-Holm-Swarm (EHS) laminin) (mouse, UniProt P19137 25-3083; P02469 22-1786; P02468 34-1607)
T1 construct: laminin subunit alpha-1 of laminin-111, mouse EHS laminin; laminin subunit beta-1 of laminin-111, mouse EHS laminin; laminin subunit gamma-1 of laminin-111, mouse EHS laminin; source: bought: ThermoFisher, 23017015 (mouse Engelbreth-Holm-Swarm laminin); copies: + +
Test: ELISA; solid-phase assay: WGA eluates of skeletal muscle diluted 1:50 in TBS coated on polystyrene microplates overnight at 4 °C; Laminin-111 in laminin-binding buffer; bound laminin detected with L9393 and HRP anti-rabbit IgG, absorbance at 490 nm; three replicates for each group
Conditions: one partner purified

Binder	Kd [nM]
B1	0.966 ± 0.069
B2	1.9 ± 0.199
